Patent publication US20160244802

Tests used:
[1] = target: T1, dimethyl-K36 histone H3 peptide (STGGV2mKKPHRY-C)
T1 chain: STGGVKKPHRYC

[2] = target: trimethyl-K36 histone H3 peptide
[3] = target: T2, histone H3 (1-18) peptide, H3K4me2 (Upstate 12-460), P68431
T2 chain: ARTKQTARKSTGGKAPRK

[4] = target: T3, histone H3 (1-18) peptide, H3K4me3 (Upstate 12-564), P68431
T3 chain: ARTKQTARKSTGGKAPRK

[5] = target: T4, histone H3 (1-18) peptide, H3K4me1 (Upstate 12-563), P68431
T4 chain: ARTKQTARKSTGGKAPRK

[6] = target: T5, histone H3 (1-18) peptide, tri-methyl on lysine 9, P68431
T5 chain: ARTKQTARKSTGGKAPRK

[7] = target: T6, histone H3 (1-18) peptide, di-methyl on lysine 9, P68431
T6 chain: ARTKQTARKSTGGKAPRK

[8] = target: T7, trimethyl-K9 histone H3 peptide (acetyl-ARTKQTARmeKSTGGKAPRK-biotin)
T7 chain: ARTKQTARKSTGGKAPRK

[9] = target: T8, dimethyl-K9 histone H3 peptide (acetyl-ARTKQTARmeKSTGGKAPRK-biotin)
T8 chain: ARTKQTARKSTGGKAPRK

B1: recombinant Flag-JHDM1A (FBXL11) (protein)
chain: MEPEEERIRYSQRLRGTMRRRYEDDGISDDEIEGKRTFDLEEKLHTNKYNANFVTFMEGKDFNVEYIQRGGLRDPLIFKNSDGLGIKMPDPDFTVNDVKMCVGSRRMVDVMDVNTQKGIEMTMAQWTRYYETPEEEREKLYNVISLEFSHTRLENMVQRPSTVDFIDWVDNMWPRHLKESQTESTNAILEMQYPKVQKYCLMSVRGCYTDFHVDFGGTSVWYHIHQGGKVFWLIPPTAHNLELYENWLLSGKQGDIFLGDRVSDCQRIELKQGYTFVIPSGWIHAVYTPTDTLVFGGNFLHSFNIPMQLKIYNIEDRTRVPNKFRYPFYYEMCWYVLERYVYCITNRSHLTKEFQKESLSMDLELNGLESGNGDEEAVDREPRRLSSRRSVLTSPVANGVNLDYDGLGKTCRSLPSLKKTLAGDSSSDCSRGSHNGQVWDPQCAPRKDRQVHLTHFELEGLRCLVDKLESLPLHKKCVPTGIEDEDALIADVKILLEELANSDPKLALTGVPIVQWPKRDKLKFPTRPKVRVPTIPITKPHTMKPAPRLTPVRPAAASPIVSGARRRRVRCRKCKACVQGECGVCHYCRDMKKFGGPGRMKQSCVLRQCLAPRLPHSVTCSLCGEVDQNEETQDFEKKLMECCICNEIVHPGCLQMDGEGLLNEELPNCWECPKCYQEDSSEKAQKRKMEESDEEAVQAKVLRPLRSCDEPLTPPPHSPTSMLQLIHDPVSPRGMVTRSSPGAGPSDHHSASRDERFKRRQLLRLQATERTMVREKENNPSGKKELSEVEKAKIRGSYLTVTLQRPTKELHGTSIVPKLQAITASSANLRHSPRVLVQHCPARTPQRGDEEGLGGEEEEEEEEEEEDDSAEEGGAARLNGRGSWAQDGDESWMQREVWMSVFRYLSRRELCECMRVCKTWYKWCCDKRLWTKIDLSRCKAIVPQALSGIIKRQPVSLDLSWTNISKKQLTWLVNRLPGLKDLLLAGCSWSAVSALSTSSCPLLRTLDLRWAVGIKDPQIRDLLTPPADKPGQDNRSKLRNMTDFRLAGLDITDATLRLIIRHMPLLSRLDLSHCSHLTDQSSNLLTAVGSSTRYSLTELNMAGCNKLTDQTLIYLRRIANVTLIDLRGCKQITRKACEHFISDLSINSLYCLSDEKLIQKIS
demethylation of peptide substrate, mass spectrometry [1]: revealed the generation of mono- and unmethylated forms of the peptide in a JHDM1A-dependent manner | demethylation of peptide substrate, mass spectrometry [2]: we did not detect any demethylation when a trimethyl-K36 peptide was subjected to a parallel reaction (data not shown)

B2: recombinant Flag-RBP2 (Retinoblastoma Binding Protein 2, JARID1A) (protein)
chain: MAGVGPGGYAAEFVPPPECPVFEPSWEEFTDPLSFIGRIRPLAEKTGICKIRPPKDWQPPFACEVKSFRFTPRVQRLNELEAMTRVRLDFLDQLAKFWELQGSTLKIPVVERKILDLYALSKIVASKGGFEMVTKEKKWSKVGSRLGYLPGKGTGSLLKSHYERILYPYELFQSGVSLMGVQMPNLDLKEKVEPEVLSTDTQTSPEPGTRMNILPKRTRRVKTQSESGDVSRNTELKKLQIFGAGPKVVGLAMGTKDKEDEVTRRRKVTNRSDAFNMQMRQRKGTLSVNFVDLYVCMFCGRGNNEDKLLLCDGCDDSYHTFCLIPPLPDVPKGDWRCPKCVAEECSKPREAFGFEQAVREYTLQSFGEMADNFKSDYFNMPVHMVPTELVEKEFWRLVSSIEEDVIVEYGADISSKDFGSGFPVKDGRRKILPEEEEYALSGWNLNNMPVLEQSVLAHINVDISGMKVPWLYVGMCFSSFCWHIEDHWSYSINYLHWGEPKTWYGVPSHAAEQLEEVMRELAPELFESQPDLLHQLVTIMNPNVLMEHGVPVYRTNQCAGEFVVTFPRAYHSGFNQGYNFAEAVNFCTADWLPIGRQCVNHYRRLRRHCVFSHEELIFKMAADPECLDVGLAAMVCKELTLMTEEETRLRESVVQMGVLMSEEEVFELVPDDERQCSACRTTCFLSALTCSCNPERLVCLYHPTDLCPCPMQKKCLRYRYPLEDLPSLLYGVKVRAQSYDTWVSRVTEALSANFNHKKDLIELRVMLEDAEDRKYPENDLFRKLRDAVKEAETCASVAQLLLSKKQKHRQSPDSGRTRTKLTVEELKAFVQQLFSLPCVISQARQVKNLLDDVEEFHERAQEAMMDETPDSSKLQMLIDMGSSLYVELPELPRLKQELQQARWLDEVRLTLSDPQQVTLDVMKKLIDSGVGLAPHHAVEKAMAELQELLTVSERWEEKAKVCLQARPRHSVASLESIVNEAKNIPAFLPNVLSLKEALQKAREWTAKVEAIQSGSNYAYLEQLESLSAKGRPIPVRLEALPQVESQVAAARAWRERTGRTFLKKNSSHTLLQVLSPRTDIGVYGSGKNRRKKVKELIEKEKEKDLDLEPLSDLEEGLEETRDTAMVVAVFKEREQKEIEAMHSLRAANLAKMTMVDRIEEVKFCICRKTASGFMLQCELCKDWFHNSCVPLPKSSSQKKGSSWQAKEVKFLCPLCMRSRRPRLETILSLLVSLQKLPVRLPEGEALQCLTERAMSWQDRARQALATDELSSALAKLSVLSQRMVEQAAREKTEKIISAELQKAAANPDLQGHLPSFQQSAFNRVVSSVSSSPRQTMDYDDEETDSDEDIRETYGYDMKDTASVKSSSSLEPNLFCDEEIPIKSEEVVTHMWTAPSFCAEHAYSSASKSCSQGSSTPRKQPRKSPLVPRSLEPPVLELSPGAKAQLEELMMVGDLLEVSLDETQHIWRILQATHPPSEDRFLHIMEDDSMEEKPLKVKGKDSSEKKRKRKLEKVEQLFGEGKQKSKELKKMDKPRKKKLKLGADKSKELNKLAKKLAKEEERKKKKEKAAAAKVELVKESTEKKREKKVLDIPSKYDWSGAEESDDENAVCAAQNCQRPCKDKVDWVQCDGGCDEWFHQVCVGVSPEMAENEDYICINCAKKQGPVSPGPAPPPSFIMSYKLPMEDLKETS
demethylation of peptide substrate, mass spectrometry [3]: 80-90% demethylation of the modified substrate | demethylation of peptide substrate, mass spectrometry [4]: 80-90% demethylation of the modified substrate | demethylation of peptide substrate, mass spectrometry [5]: failed to catalyze removal of the mel modification state

B3: recombinant Flag-JHDM3A (JMJD2A) (protein)
chain: MASESETLNPSARIMTFYPTMEEFRNFSRYIAYIESQGAHRAGLAKVVPPKEWKPRASYDDIDDLVIPAPIQQLVTGQSGLFTQYNIQKKAMTVREFRKIANSDKYCTPRYSEFEELERKYWKNLTFNPPIYGADVNGTLYEKHVDEWNIGRLRTILDLVEKESGITIEGVNTPYLYFGMWKTSFAWHTEDMDLYSINYLHFGEPKSWYSVPPEHGKRLERLAKGFFPGSAQSCEAFLRHKMTLISPLMLKKYGIPFDKVTQEAGEFMITFPYGYHAGFNHGFNCAESTNFATRRWIEYGKQAVLCSCRKDMVKISMDVFVRKFQPERYKLWKAGKDNTVIDHTLPTPEAAEFLKESELPPRAGNEEECPEEDMEGVEDGEEGDLKTSLAKHRIGTKRHRVCLEIPQEVSQSELFPKEDLSSEQYEMTECPAALAPVRPTHSSVRQVEDGLTFPDYSDSTEVKFEELKNVKLEEEDEEEEQEAAALDLSVNPASVGGRLVFSGSKKKSSSSLGSGSSRDSISSDSETSEPLSCRAQGQTGVLTVHSYAKGDGRVTVGEPCTRKKGSAARSFSERELAEVADEYMFSLEENKKSKGRRQPLSKLPRHHPLVLQECVSDDETSEQLTPEEEAEETEAWAKPLSQLWQNRPPNFEAEKEFNETMAQQAPHCAVCMIFQTYHQVEFGGFNQNCGNASDLAPQKQRTKPLIPEMCFTSTGCSTDINLSTPYLEEDGTSILVSCKKCSVRVHASCYGVPPAKASEDWMCSRCSANALEEDCCLCSLRGGALQRANDDRWVHVSCAVAILEARFVNIAERSPVDVSKIPLPRFKLKCIFCKKRRKRTAGCCVQCSHGRCPTAFHVSCAQAAGVMMQPDDWPFVVFITCFRHKIPNLERAKGALQSITAGQKVISKHKNGRFYQCEVVRLTTETFYEVNFDDGSFSDNLYPEDIVSQDCLQFGPPAEGEVVQVRWTDGQVYGAKFVASHPIQMYQVEFEDGSQLVVKRDDVYTLDEELPKRVKSRLSVASDMRFNEIFTEKEVKQEKKRQRVINSRYREDYIEPALYRAIME
demethylation of peptide substrate, mass spectrometry [6]: the trimethyl-K9 peptide was converted to a dimethyl-K9 peptide | demethylation of peptide substrate, mass spectrometry [7]: no demethylation was observed on a di-methyl H3K9 peptide

B4: recombinant Flag-JHDM2A (JmjC domain-containing histone demethylase 2A) (protein)
chain: MVLTLGESWPVLVGRRFLSLSAADGSDGSHDSWDVERVAEWPWLSGTIRAVSHTDVTKKDLKVCVEFDGESWRKRRWIEVYSLLRRAFLVEHNLVLAERKSPEISERIVQWPAITYKPLLDKAGLGSITSVRFLGDQQRVFLSKDLLKPIQDVNSLRLSLTDNQIVSKEFQALIVKHLDESHLLKGDKNLVGSEVKIYSLDPSTQWFSATVINGNPASKTLQVNCEEIPALKIVDPSLIHVEVVHDNLVTCGNSARIGAVKRKSSENNGTLVSKQAKSCSEASPSMCPVQSVPTTVFKEILLGCTAATPPSKDPRQQSTPQAANSPPNLGAKIPQGCHKQSLPEEISSCLNTKSEALRTKPDVCKAGLLSKSSQIGTGDLKILTEPKGSCTQPKTNTDQENRLESVPQALTGLPKECLPTKASSKAELEIANPPELQKHLEHAPSPSDVSNAPEVKAGVNSDSPNNCSGKKVEPSALACRSQNLKESSVKVDNESCCSRSNNKIQNAPSRKSVLTDPAKLKKLQQSGEAFVQDDSCVNIVAQLPKCRECRLDSLRKDKEQQKDSPVFCRFFHFRRLQFNKHGVLRVEGFLTPNKYDNEAIGLWLPLTKNVVGIDLDTAKYILANIGDHFCQMVISEKEAMSTIEPHRQVAWKRAVKGVREMCDVCDTTIFNLHWVCPRCGFGVCVDCYRMKRKNCQQGAAYKTFSWLKCVKSQIHEPENLMPTQIIPGKALYDVGDIVHSVRAKWGIKANCPCSNRQFKLFSKPASKEDLKQTSLAGEKPTLGAVLQQNPSVLEPAAVGGEAASKPAGSMKPACPASTSPLNWLADLTSGNVNKENKEKQPTMPILKNEIKCLPPLPPLSKSSTVLHTFNSTILTPVSNNNSGFLRNLLNSSTGKTENGLKNTPKILDDIFASLVQNKTTSDLSKRPQGLTIKPSILGFDTPHYWLCDNRLLCLQDPNNKSNWNVFRECWKQGQPVMVSGVHHKLNSELWKPESFRKEFGEQEVDLVNCRTNEIITGATVGDFWDGFEDVPNRLKNEKEPMVLKLKDWPPGEDFRDMMPSRFDDLMANIPLPEYTRRDGKLNLASRLPNYFVRPDLGPKMYNAYGLITPEDRKYGTTNLHLDVSDAANVMVYVGIPKGQCEQEEEVLKTIQDGDSDELTIKRFIEGKEKPGALWHIYAAKDTEKIREFLKKVSEEQGQENPADHDPIHDQSWYLDRSLRKRLHQEYGVQGWAIVQFLGDVVFIPAGAPHQVHNLYSCIKVAEDFVSPEHVKHCFWLTQEFRYLSQTHTNHEDKLQVKNVIYHAVKDAVAMLKASESSFGKP
demethylation of peptide substrate, mass spectrometry [8]: no demethylation was detected when a trimethyl-K9 peptide, that has the same sequence, was subjected to parallel analysis | demethylation of peptide substrate, mass spectrometry [9]: demethylation of a dimethyl-K9 peptide depends on the presence of JHDM2A and generated products with masses that correlate with both mono-methyl and unmethylated forms of the peptide
